Substitutions are numbered along the chain they refer to.
B1: MOR05024 Fab (Fab, V domains shown)
VH: QVQLVQSGAEVKKPGSSVKVSCKASGGTFSSYAISWVRQAPGQGLEWMGNIYPIFGYANYAQKFQGRVTITADESTSTAYMELSSLRSEDTAVYYCARYGQYGQHFSHGGMDVWGQGTLVTVSS
VL: DIQMTQSPSSLSASVGDRVTITCRASQDISISLTWYQQKPGKAPKLLIYGAFSLQSGVPSRFSGSGSGTDFTLTISSLQPEDFATYYCQQFWFEPVTFGQGTKVEIKR
B2: MOR05027 Fab (Fab, V domains shown)
VH: B1 VH
VL: B1 VL with F93T
B3: MOR05026 Fab (Fab, V domains shown)
VH: B1 VH
VL: B1 VL with F93S
B4: MOR05023 Fab (Fab, V domains shown)
VH: B1 VH
VL: B1 VL with W92Y, E94H, P95S, V96P
B5: MOR05025 Fab (Fab, V domains shown)
VH: B1 VH
VL: B1 VL with E94H
B6: MOR05019 Fab (Fab, V domains shown)
VH: QVQLVESGGGLVQPGGSLRLSCAASGFTFSNHALSWVRQAPGKGLEWVSVISFDGVKFYADSVKGRFTISRDNSKNTLYLQMNSLRAEDTAVYYCARYYGYSYMDYWGQGTLVTVSS
VL: DIELTQPPSVSVAPGQTARISCSGDNLGSKYVHWYQQKPGQAPVLVIYADNNRPSGIPERFSGSNSGNTATLTISGTQAEDEADYYCQSYDHMLQVFGGGTKLTVLG
notes: also called MOR5019
B7: MOR05016 Fab (Fab, V domains shown)
VH: QVQLVESGGGLVQPGGSLRLSCAASGFTFSSYYMSWVRQAPGKGLEWVSNISYDSSDTYYADSVKGRFTISRDNSKNTLYLQMNSLRAEDTAVYYCARQQYFDHIDIWGQGTLVTVSS
VL: DIELTQPPSVSVAPGQTARISCGGDSLGGKYVYWYQQKPGQAPVLVIYGDSKRPSGIPERFSGSNSGNTATLTISGTQAEDEADYYCQSYDLQSLNIVFGGGTKLTVLG
B8: MOR05018 Fab (Fab, V domains shown)
VH: B7 VH
VL: B7 VL with Q93G, I97L
B9: MOR05017 Fab (Fab, V domains shown)
VH: B7 VH
VL: B7 VL with Q93K, I97V
B10: MOR05020 Fab (Fab, V domains shown)
VH: QVQLVESGGGLVQPGGSLRLSCAASGFTFSNHALSWVRQAPGKGLEWVSGIQYDGSNTGYADSVKGRFTISRDNSKNTLYLQMNSLRAEDTAVYYCARYYGYSYMDYWGQGTLVTVSS
VL: DIELTQPPSVSVAPGQTARISCSGDNLGSKYVHWYQQKPGQAPVLVIYADNNRPSGIPERFSGSNSGNTATLTISGTQAEDEADYYCSSYDSNSIRVFGGGTKLTVLG
B11: MOR05021 Fab (Fab, V domains shown)
VH: B10 VH
VL: B10 VL with S92L, N93D, S94G, I95V
B12: MOR05022 Fab (Fab, V domains shown)
VH: B10 VH
VL: B10 VL with D91T, S92T, N93S, S94G
B13: MOR05008 Fab (Fab, V domains shown)
VH: QVQLVQSGAEVKKPGSSVKVSCKASGGTFSSYAISWVRQAPGQGLEWMGGIIPEFGFTNYAQKFQGRVTITADESTSTAYMELSSLRSEDTAVYYCARSGMFYSILFDYWGQGTLVTVSS
VL: DIQMTQSPSSLSASVGDRVTITCRASQDIYNYLNWYQQKPGKAPKLLIYGASSLQSGVPSRFSGSGSGTDFTLTISSLQPEDFAVYYCQQQNDYPLTFGQGTKVEIKR
B14: MOR05009 Fab (Fab, V domains shown)
VH: B13 VH with G50H, I52S
VL: B13 VL
B15: MOR05013 Fab (Fab, V domains shown)
VH: QVQLVESGGGLVQPGGSLRLSCAASGFTFSSYYMSWVRQAPGKGLEWVSGIFFDGETYYADSVKGRFTISRDNSKNTLYLQMNSLRAEDTAVYYCARQQYFDHIDIWGQGTLVTVSS
VL: DIELTQPPSVSVAPGQTARISCGGDSLGGKYVYWYQQKPGQAPVLVIYGDSKRPSGIPERFSGSNSGNTATLTISGTQAEDEADYYCQSYTNALSTVFGGGTKLTVLG
B16: MOR05011 Fab (Fab, V domains shown)
VH: B15 VH with F53Y, E56S, A60P
VL: B15 VL
B17: MOR05012 Fab (Fab, V domains shown)
VH: B15 VH with D54T, A60P
VL: B15 VL
B18: MOR05015 Fab (Fab, V domains shown)
VH: B15 VH with I51T, E56S
VL: B15 VL
B19: MOR05014 Fab (Fab, V domains shown)
VH: B15 VH with E56T
VL: B15 VL
B20: MOR05010 Fab (Fab, V domains shown)
VH: B15 VH with D61G
VL: B15 VL
B21: MOR04832 Fab (Fab, V domains shown)
VH: B1 VH
VL: B1 VL with F91Y, W92Y, F93G, E94T, P95S, V96A
notes: carries two C-terminal tags (FLAG and 6xHis)
B22: MOR04497 Fab (Fab, V domains shown)
VH: B10 VH
VL: B6 VL
notes: as for B21
B23: MOR04493 Fab (Fab, V domains shown)
VH: B13 VH with E54D, F57W, T58A
VL: B13 VL
notes: as for B21
B24: MOR04496 Fab (Fab, V domains shown)
VH: QVQLVESGGGLVQPGGSLRLSCAASGFTFSSYAISWVRQAPGKGLEWVSSISYSGSSTYYADSVKGRFTISRDNSKNTLYLQMNSLRAEDTAVYYCARMEYWYHLLYMDYWGQGTLVTVSS
VL: DIVLTQSPATLSLSPGERATLSCRASQSIGDNYLAWYQQKPGQAPRLLIYDANNRATGVPARFSGSGSGTDFTLTISSLEPEDFATYYCQQYDDHPLTFGQGTKVEIKR
notes: as for B21
B25: MOR04609 Fab (Fab, V domains shown)
VH: QVQLQQSGPGLVKPSQTLSLTCAISGDSVSSNSAAWGWIRQSPGRGLEWLGRIYYRSKWLNDYAVSVKSRITINPDTSKNQFSLQLNSVTPEDTAVYYCARDGGWYIDVWGQGTLVTVSS
VL: DIELTQPPSVSVAPGQTARISCSGDNLGSYYANWYQQKPGQAPVLVIYEDKRPSGIPERFSGSNSGNTATLTISGTQAEDEADYYCQSFDSYHSDYVFGGGTKLTVLG
notes: as for B21
B26: MOR04494 Fab (Fab, V domains shown)
VH: B7 VH
VL: B15 VL
notes: as for B21

target: T1, recombinant human TSLP (R&D Systems) (human, UniProt Q969D9 29-159); assay: BioVeris electrochemiluminescence screening, Fab in E. coli lysate on biotinylated TSLP coupled to streptavidin beads
T1 construct: also called hTSLP; human thymic stromal lymphopoietin
Procedure: BEL extracts were diluted in assay buffer (PBS/0.05% Tween20/0.5% BSA) for use in BioVeris screening.

binding result | Binder
binds | B1
binds | B2
binds | B3
binds | B4
binds | B5
binds | B6
binds | B7
binds | B8
binds | B9
binds | B10
binds | B11
binds | B12
binds | B13
binds | B14
binds | B15
binds | B16
binds | B17
binds | B18
binds | B19
binds | B20

target: T1, recombinant human TSLP (R&D Systems); assay: SPR (Biacore), biotinylated recombinant human TSLP on SA-chip, Fab as analyte
Procedure: A respective amount of biotinylated human serum albumin (HSA) was immobilized on the reference flow cell. […] The Fabs were applied in concentration series of 16-500 nM at a flow rate of 20 μl/min. Association phase was set to 60 s and dissociation phase to 120 s.

binding result | Binder
binds | B21
binds | B22
binds | B23
binds | B24
binds | B25
binds | B26
